Source: US20110239327A1, “Nematicidal Effects of Cysteine Proteinases and Methods of Use Thereof to Treat Nematode Infestation” (priority 2007, published 2011)
Entries after “also recorded” stand apart in the source; their conditions may differ.

Columns and labels:
Meloidogyne spp. eggs = assay: Effect on eggs, hatching and development of Meloidogyne spp.; type: cell-based
Description: To determine if the enzymes affected the eggshell and/or the development and hatching of the juveniles which the eggs contain, approximately 300 Meloidogyne spp. eggs were incubated per well of a 48-well plate, in duplicate, in 50 μM (active enzyme) papain, prepared in 16 mM L-cysteine dissolved in distilled water, or distilled water with and without 16 mM L-cysteine. The number of eggs in each well was counted before the addition of papain and then the eggs were incubated in the dark at room temperature for 4 h. The number of eggs was counted before further incubation overnight. Finally, closer examination of the structure of the nematode eggs was performed using the light microscope at ×40 magnification.

Meloidogyne spp. J2s = assay: In vitro mobility of Meloidogyne spp. J2s exposed to plant cysteine proteinases; type: cell-based, M. incognita or M. javanica
Description: (§1) Eggs of M. incognita race 1 from North Carolina State University, USA, and M. javanica from Portugal were collected from the roots of infected tomato plants grown in a glasshouse at 23° C. in a 16:8 h light-dark regime. Eggs were extracted using 1% hypochlorite (NaClO) solution (Hussey and Barker, 1973) or by picking egg masses from the infected roots. M. incognita and M. javanica were both used in the experiments and produced similar results. Juveniles (J2) were hatched from the eggs and egg masses in water. Globodera rostochiensis cysts were washed extensively in distilled water. Hatched J2s were obtained by incubating cysts in distilled water for 4 days followed by exposure to potato root diffusate (PRD).
Approximately 1000 J2s (second juvenile stage) of M. incognita or M. javanica were incubated per well of a 48-well plate with the following active enzyme concentrations (determined by E-64 titration) of papain dissolved in distilled water containing 16 mM L-cysteine (to activate the cysteine proteinase): 1.5 μM, 3 μM, 6.25 μM, 12.5 μM, 25 μM, 50 μM, 75 μM and 100 μM. Control wells contained J2s and distilled water with and without 16 mM L-cysteine, or J2s and 1 mM E-64, with and without 50 μM (active enzyme) papain, which had been preincubated for 25 mins at 40° C. Each enzyme concentration and the controls were set up in duplicate (n=2) or triplicate (n=3). The number of active J2s per well was counted prior to the addition of papain, and then the J2s were incubated in the dark at room temperature for 3 h. The number of mobile J2s per well was counted after 60, 120 and 180 mins. The nematode surfaces were examined for signs of damage using a light microscope (Zeiss Axioskop) at ×20, ×40 and ×100 magnification and photographs were taken with a Xillix Microimager. The same procedure was followed when setting up further experiments to compare the effects of 25 μM papain, 25 μM crude papaya latex (0.625 g/ml), 25 μM stem bromelain (0.18 g/ml) and 25 μM actinidin (active enzyme concentrations) with M. incognita, M. javanica or G. rostochiensis.
The data from the in vitro motility experiments were analysed using a repeated measures analysis of variance (as implemented in the GenStat procedure AREPMEASUREMENTS) to compare the overall treatment means, the overall means at each sample time, and the treatment by time interaction. Numbers of nematodes moving at each of the repeated sampling times, 60, 120 and 180 mins, were expressed as a proportion of those moving initially at time 0 (i.e. this latter number was assumed to be the actual number of nematodes initially in the dish). The proportions were transformed to logits prior to analysis. […]

M. incognita J2 = assay: In vitro assay of M. incognita J2 present in soil mixtures; type: cell-based
Description: The same procedure described above was used to determine the effect of the cysteine proteinases against M. incognita J2 present in soil mixtures. The following soil mixtures were used: fine and coarse sand, peat and fine/coarse sand and loam mix and fine/coarse sand. These soil mixtures were prepared at concentrations of 1:1, 1:3 and 1:6 and autoclaved at […] for 20 min. Peat and loam-mix were obtained from Rothamsted-Research. Soil mixtures were added to 24 well plates (0.5 g) and wetted for 16 hs with either PBS ph 7.2, Tx-100, Milk 5% or cysteine proteinases, in order to wet the soil and block non-specific binding sites present in the soil particles. Then, approximately 100 J2 were added to the wells, followed by cysteine proteinases with 16 mM of L-cysteine to activate the cysteine proteinases or water as control. After 16 hs at room temperature in the dark, individual wells of the 24 well plates were flushed with 1 ml of distilled water to recover the nematodes from the soil mixtures. These were placed in a 24 well plate and the number of dead/live nematodes scored under microscopic observation.
These in vitro experiments were performed in 24 well plates using sterile soil mixtures to diminish the possibility of biological degradation of the enzyme by microorganisms. […] The number of live nematodes was counted before and after enzyme treatment. […]

G. rostochiensis J2s = assay: In vitro mobility and cuticle damage of G. rostochiensis J2s; type: cell-based, Globodera rostochiensis
Description: as §1
Approximately 1000 J2s (second juvenile stage) of M. incognita or M. javanica were incubated per well of a 48-well plate with the following active enzyme concentrations (determined by E-64 titration) of papain dissolved in distilled water containing 16 mM L-cysteine (to activate the cysteine proteinase): 1.5 μM, 3 μM, 6.25 μM, 12.5 μM, 25 μM, 50 μM, 75 μM and 100 μM. […] The number of active J2s per well was counted prior to the addition of papain, and then the J2s were incubated in the dark at room temperature for 3 h. The number of mobile J2s per well was counted after 60, 120 and 180 mins. […]

B1: papain (protein, UniProt P00784 134-345, looked up)
Papain: IPEYVDWRQKGAVTPVKNQGSCGSCWAFSAVVTIEGIIKIRTGNLNEYSEQELLDCDRRSYGCNGGYPWSALQLVAQYGIHYRNTYPYEGVQRYCRSREKGPYAAKTDGVRQVQPYNEGALLYSIANQPVSVVLEAAGKDFQLYRGGIFVGPCGNKVDHAVAAVGYGPNYILIKNSWGTGWGENGYIRIKRGTGNSYGVCGLYTSSFYPVKN
notes: cysteine proteinase from Carica papaya, Merops C01.001, Sigma P3125
Question: Which “hatching and development of the J2 stage” value (Meloidogyne spp. eggs; incubation of the eggs with enzyme) does the source give for B1 here?
Answer: not affected

Question: What about the “effect on eggs / structure of the eggs” value (Meloidogyne spp. eggs; light microscopy, up to overnight incubation) of the same molecule?
Answer: remained unaffected

Question: What about the “proportion of active Meloidogyne spp. J2s relative to control” value (Meloidogyne spp. J2s; 25 μM active enzyme) of the same molecule?
Answer: Reductions in the proportion of active worms were evident

Question: What about the “nematodes mobile after 180 mins” value (Meloidogyne spp. J2s; 50 μM active papain, with or without pre-incubation with 1 mM E-64) of the same molecule?
Answer: None

Question: And the “mobility (proportion of mobile J2s) of Meloidogyne spp. J2s” value (Meloidogyne spp. J2s; papain 1.5-100 μM active enzyme, all doses combined, 60-180 mins, vs combined controls)?
Answer: decreased the mobility; also recorded: decreased linearly

Question: And the “activity of Meloidogyne J2s relative to combined controls” value (Meloidogyne spp. J2s; papain at active enzyme concentrations of 1.5 μM and 3 μM)?
Answer: caused reductions in the activity

Question: What about the nematode mortality (M. incognita J2; papain latex 100 μM, 16 hours, all soil mixtures (sand; 1:3 sand/loam mix; 1:3 sand/peat)) of the same molecule?
Answer: 40-50%

Question: What about the “state of the nematodes after two applications of papain to soil” value (M. incognita J2; soil with 16% organic matter wetted with 250 μM papain without L-cysteine, then 250 μM papain in 16 mM L-cysteine, 16 hs) of the same molecule?
Answer: most nematodes were dead

Question: And the “mobility (proportion of active worms) of G. rostochiensis J2s” value (G. rostochiensis J2s; 25 μM active enzyme)?
Answer: reduction in mobility was significantly greater overall; also recorded: Reductions in the proportion of active worms were evident

Question: And the “incubation needed before damage to the cuticle, compared to Meloidogyne spp.” value (G. rostochiensis J2s; data not shown)?
Answer: needed longer incubation periods
